In patent US11697680B2, “Anti-GP73 antibodies and immunoconjugates” (CUREAB GMBH, priority 2016, dated 2023):
Where a SMILES comes first, the peptide text is derived from it. [ ]: non-standard residue; d: D form. Dolaproine = CO[C@@H]([C@@H]1CCCN1)[C@@H](C)C(=O)O; Dil = CC[C@H](C)[C@H](NC)[C@@H](CC(=O)O)OC; NMeV = CN[C@H](C(=O)O)C(C)C

How the values were obtained:
HuH7 cells = assay: Efficacy of G2-2-ADC in HuH7 cells (cell viability, PrestoBlue); format: cell-based, human; details: medium changed after one hour, viability after 98 hours, read-out: IC50 as determined by drug component
Description: FIG. 14 An antibody drug conjugate consisting of MMAF attached to a Malamide exchange linker linked to G2-2 was added to HuH7 cells.
An antibody drug conjugate consisting of MMAF attached by a malameide exchange linker to G2-2 was added to the cell culture medium of HUH7 cells in different concentrations. Medium was changed after one hour. Cell viability was analyzed after 98 hours using PrestoBlue reagent (ThermoFischer).

GP73 peptide: […] = target: T1, GP73 peptide: […] (Homo sapiens, UniProt Q8NBJ4); assay: Biacore surface plasmon resonance, data fit for 1:1 binding; details: Biacore 1:1 binding fit; GP73 peptide SSRSVDLQTRIMELEGRVRR
T1 construct: GP73 peptide: […]
Description: In one embodiment, Kd is measured using surface plasmon resonance assays using a BIACORE®-2000 or a BIACORE®-3000 (BIAcore, Inc., Piscataway, N.J.) at 25° C. with immobilized antigen CM5 chips at […] response units (RU). Briefly, carboxymethylated dextran biosensor chips (CM5, BIACORE, Inc.) are activated with N-ethyl-N′-(3-dimethylaminopropyl) carbodiimide hydrochloride (EDC) and N-hydroxysuccinimide (NHS) according to the supplier's instructions. Antigen is diluted with 10 mM sodium acetate, pH 4.8, to 5 μg/ml (−0.2 μM) before injection at a flow rate of 5 μl/minute to achieve approximately 10 response units (RU) of coupled protein. Following the injection of antigen, 1 M ethanolamine is injected to block unreacted groups. For kinetics measurements, two-fold serial dilutions of antibody (0.58 nM to 200 nM) are injected in PBS with 0.05% polysorbate 20 (TWEEN-20™) surfactant (PEST) at 25° C. at a flow rate of approximately 25 μl/min. Association rates (kon) and dissociation rates (koff) are calculated using a simple one-to-one Langmuir binding model (BIACORE® T100 Evaluation Software) by simultaneously fitting the association and dissociation sensorgrams. The equilibrium dissociation constant (Kd) is calculated as the ratio koff/kon. See, e.g., Chen et al., J. Mol. Biol. 293:865-881 (1999). If the on-rate exceeds […] s^−1 by the surface plasmon resonance assay above, then the on-rate can be determined by using a fluorescent quenching technique that measures the increase or decrease in fluorescence emission intensity (excitation=295 nm; emission=340 nm, 16 nm band-pass) at 25° C. of a 20 nM anti-antigen antibody in PBS, pH 7.2, in the presence of increasing concentrations of antigen as measured in a spectrometer, such as a stop-flow equipped spectrophometer (Aviv Instruments) or a 8000-series SLM-AMINCO™ spectrophotometer (ThermoSpectronic) with a stirred cuvette.

peptide AA 36-55 of GP73 [1] = target: T2, peptide AA 36-55 of GP73 (Homo sapiens, UniProt Q8NBJ4); assay: Competition peptide ELISA with HRP-labeled antibodies; format: binding; details: unlabeled competing antibody at high concentration; binding antibody G2-2-HRP
Description: A peptide ELISA was performed using horse radish peroxidase labeled G2-1 (G2-1-HRP) or G2-2 (G2-2-HRP) as binding antibodies and G2-1 or G2-2 as competing antibodies. […] Binding to peptide AA 36-55 of GP73 served as positive control (filled circle), negative control was binding to an unrelated peptide (filled diamond) as described in Example 5.
(§1) ELISA was carried out in 96 well plates coated overnight with biotinylated peptide and blocked with 2% gelatine. Horse radish peroxidase labeled antibodies G2-1 (G2-1-HRP) or G2-2 (G2-2-HRP) were applied and incubated for 1.5 hours. For competition testing non labeled G2-1 or G2-2 was added at high concentration. For pH dependent binding the antibodies were applied in phosphate buffer pH 4.4, 5.4, 6.4 or 7.4. After extensive washing a chromogenic substrate (TMB Amersham) was added to detect peroxidase. The reaction was stopped and absorbance was read at 450 nm.

peptide AA 36-55 of GP73 [2] = target: T2, peptide AA 36-55 of GP73; assay: pH dependent peptide ELISA; format: binding; details: pH range of 7.4 to 5.4
Description: A peptide ELISA was performed to test for pH dependency of binding to peptide AA 36-55 of GP73.
as §1

[3] = target: T3, Furin cleavage of recombinant GP73-HIS (Homo sapiens, UniProt Q8NBJ4); assay: Furin cleavage of GP73-HIS depending on antibody binding (capture ELISA); format: biochemical; details: 3 U and 1.5 U of Furin; 2 hours at 30° C.
T3 construct: purchased Biolegend
T3 sequence (Q8NBJ4 36-401 limits assumed): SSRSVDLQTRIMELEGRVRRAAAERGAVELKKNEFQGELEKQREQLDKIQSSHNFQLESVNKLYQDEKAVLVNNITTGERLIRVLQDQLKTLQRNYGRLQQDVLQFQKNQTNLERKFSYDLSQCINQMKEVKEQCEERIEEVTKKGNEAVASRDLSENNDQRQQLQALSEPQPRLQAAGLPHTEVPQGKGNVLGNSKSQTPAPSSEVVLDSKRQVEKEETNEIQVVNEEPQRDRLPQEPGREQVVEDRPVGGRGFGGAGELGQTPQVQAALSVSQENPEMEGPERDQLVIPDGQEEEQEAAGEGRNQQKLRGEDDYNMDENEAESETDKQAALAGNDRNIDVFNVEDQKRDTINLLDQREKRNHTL
Description: Measurements of Furin cleavage of GP73 using a range from 0 units to 3 units of Furin are depicted.
Testing of Furin cleavage exploits the fact that antibodies G2-1 and G2-2 bind GP73 N-terminal of or at the furin cleavage site 56R whereas recombinant GP73 with C-terminal HIS tag (GP73-HIS) is detected by anti HIS antibody at the C-terminus of GP73. Plate bound anti human IgG can capture G2-1 or G2-2, which binds GP73-HIS. If furin cleavage occurs in a setting where G2-1 or G2-2 have already bound to GP73-HIS, only N-terminal part of GP73 will reside at the G2 antibodies. In contrast, if furin cleavage is hindered by G2 antibodies, GP73-HIS can be detected by an anti HIS antibody.
Furin cleavage was carried out in 1.5 ml tubes. To test if G2 antibodies can hinder furin cleavage recombinant GOLPH-HIS protein (Biolegend) and G2-2 or G2-1 was incubated for 2 hours in 100 mM HEPES and 1 mM CaCl2 buffer pH 7.5 to allow antibody binding to GP73. […]
From each reaction 2×100 ul were transferred to wells of a 96 well plate that had been coated over night with anti human IgG and was blocked with 1% gelatine in PBS. After one hour incubation at room temperature the plate was washed, incubated with anti HIS-hrp antibody for one hour, washed again, incubated with a chromogenic substrate (TMB Amersham) to detect peroxidase, stopped and read at 450 nm.

sGP73 (GP73 AA56 to 401) = target: T4, sGP73 (GP73 AA56 to 401) (Homo sapiens, UniProt Q8NBJ4); assay: Protein ELISA on sGP73-His; format: binding; details: plates coated with sGP73; absorbance 450 nm
T4 construct: contains sGP73-10×His, encompassing GP73 AA56 to 401 (sGP73); made in house; host or cells: 293HEK cells, isolated from the supernatant by IMAC
T4 sequence (Q8NBJ4 with tags, fused parts or gaps): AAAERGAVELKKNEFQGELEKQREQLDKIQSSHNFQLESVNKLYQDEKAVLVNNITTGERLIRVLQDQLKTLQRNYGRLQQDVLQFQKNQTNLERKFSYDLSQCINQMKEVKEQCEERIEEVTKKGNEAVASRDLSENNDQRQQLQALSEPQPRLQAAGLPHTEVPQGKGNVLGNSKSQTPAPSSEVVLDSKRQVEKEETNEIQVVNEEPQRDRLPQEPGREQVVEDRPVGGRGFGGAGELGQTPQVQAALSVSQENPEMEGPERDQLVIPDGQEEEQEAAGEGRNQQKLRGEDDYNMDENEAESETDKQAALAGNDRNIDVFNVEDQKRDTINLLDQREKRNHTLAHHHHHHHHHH
Description: (§2) 293HEK cells were either transfected with cDNA containing full length GP73 AA 1-401 C-terminal tagged with 10×HIS-Tag or with a GP73 ΔN variant containing AA 36 to 401 with a R52A mutation, resulting in a non-cleavable variant, C-terminal tagged with 10×HIS-Tag (GP73-His AVRR). In both constructs a secretion signal was added in frame to the N-terminus. The supernatant of the full length GP73 expressing cells contains sGP73-10×His, encompassing GP73 AA56 to 401 (sGP73; SEQ ID NO: 40), that has been proteolytically cleaved by furin or another protease at AA 55. The supernatant of the GP73 ΔN variant contains GP73-10×His AVRR, encompassing GP73 AA36 to 401 (GP73 AVRR; SEQ ID NO: 41) as shown in FIG. 20. Only the latter of the two constructs contains the rGP73 epitope. Both proteins were isolated by IMAC.
(§3) ELISA was carried out in 96 well plates coated overnight with sGP73 or GP73 AVRR and blocked with 2% gelatine. Antibodies 8A10, G2-2opti (IgG2a) or isotype control antibody were applied, incubated for 1.5 hours and washed away. A secondary Horse radish peroxidase labeled anti mouse antibody was added for 1 hour and after extensive washing a chromogenic substrate (TMB Amersham) was applied to detect peroxidase.

[4] = target: T5, GP73 AVRR (GP73 AA36 to 401, R52A) (Homo sapiens, UniProt Q8NBJ4, R52A); assay: Protein ELISA on GP73-His AVRR; format: binding; details: plates coated with GP73 AVRR; absorbance 450 nm
T5 construct: contains GP73-10×His AVRR, encompassing GP73 AA36 to 401 (GP73 AVRR); made in house; host or cells: 293HEK cells, isolated from the supernatant by IMAC
T5 sequence (Q8NBJ4 with tags, fused parts or gaps R52A): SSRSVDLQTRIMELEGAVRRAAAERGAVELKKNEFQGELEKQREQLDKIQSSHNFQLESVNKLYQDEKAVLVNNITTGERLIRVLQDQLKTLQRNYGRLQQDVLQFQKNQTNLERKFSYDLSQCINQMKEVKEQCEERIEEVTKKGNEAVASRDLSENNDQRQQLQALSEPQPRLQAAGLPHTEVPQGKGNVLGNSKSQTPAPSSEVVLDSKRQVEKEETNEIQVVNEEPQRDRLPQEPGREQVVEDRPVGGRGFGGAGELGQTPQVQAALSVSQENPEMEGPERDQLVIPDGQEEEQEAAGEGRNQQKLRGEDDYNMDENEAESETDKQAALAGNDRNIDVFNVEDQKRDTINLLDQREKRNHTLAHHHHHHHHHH
Description: as §2, §3

CC[C@H](C)[C@@H]([C@@H](CC(=O)N1CCC[C@H]1[C@H](OC)[C@@H](C)C(=O)N[C@@H](Cc1ccccc1)C(=O)O)OC)N(C)C(=O)[C@@H](NC(=O)[C@@H](NC)C(C)C)C(C)C [MMAF, monomethylauristatin F] (H-[NMeV]V[Dil][Dolaproine]F-OH)
IC50 (HuH7 cells): 277 nM

B1: G2-1: scFv clone with human IgG1 heavy and human Igk light constant regions; VH/VL SEQ ID NO: 10 and 11; binds rGP73 (antibody, V domains shown)
VH: EVQLLESGGGVVQPGRSLRLSCAASGFTFSSYAMSWVRQAPGKGLEWVSVISYDGSNKAYADSVKGRFTISRDNSKNTLYLQMNSLRAEDTAVYYCARGRSYYDSSGYLFDYWGQGTLVTVSS
VL: DIQMTQPHSVSESVGKTVIITCTGGGGSIDTNYVQWYQQRPGSAPVTLIYEDDQRPFGVPDRFSAAIDTSSSSASLTISGLTAEDEATYYCQSSHSTAVVFGGGTKVEIK
modifications: human IgG1 and Igk constant regions not cited; G2-1 heavy chain variable region (VH); G2-1 light chain variable region (VL)
koff, measurement 1 + 2 mean (GP73 peptide: […]): 0.001981 s⁻¹ | kon, measurement 1 + 2 mean (GP73 peptide: […]): 635200 M⁻¹ s⁻¹ | competition with G2-2-HRP for peptide binding (peptide AA 36-55 of GP73 [1]): Competitive inhibition | pH dependency of binding to peptide AA 36-55 of GP73 (peptide AA 36-55 of GP73 [2]): Stable binding | Furin cleavage of GP73 after preincubation with antibody [3]: significant reduction in Furin cleavage

B2: G2-2opti (IgG2a): chimeric human/murine version of G2-2opti with murine constant domains (antibody, V domains shown)
VH: QVQLVQSGGGVVQPGRSLRLSCAASGFTFSSYGMHWVRQAPGKGLEWVAVISYDGSNKYYADSVKGRFTISRDNSKNTLYLQMNSLRAEDTAVYYCAREGSAGMDVWGQGTTVTVSS
VL: QAVLTQPSSLSASPGASASLTCTLRSDISVGFHRIYWYQQKPGSPPQYLLRYKSDSDKQQGSGVPSRFSGSKDASANAGILLISGLQSDDEADYYCVIWHTSGVVFGGGTKLTVL
binding to sGP73 (ELISA) (sGP73 (GP73 AA56 to 401)): not to sGP73 | binding to GP73 AVRR (ELISA) [4]: binds to GP73 AVRR
